The values that follow come from patent US9540428B2, “Extracellular matrix heparin-binding domains” (EPFL-TTO, priority 2012, dated 2017).

The subject of test [1] is skin wounds. As to the kind of experiment: Full-thickness back-skin wound healing in diabetic mice. The format is in vivo. The note with it: TG-PEG gels functionalized with TG-Fg β15-66 delivering FGF-2 and PlGF-2; 10 days. The protocol: Method: Full-thickness back-skin wounds were treated with combined FGF-2 and PlGF-2. Seven groups were tested: treatment (no ECM); fibrin only; fibrin containing cytokines; PEG only, PEG containing cytokines; PEG functionalized with TG-Fg β15-66, and PEG functionalized with TG-Fg β15-66 containing cytokines. After 10 days, wound closure and granulation tissue area were evaluated by histology. FIG. 20 details the results.

In test [2] the test system is HUVEC cells. As to the kind of experiment: HUVEC proliferation with cytokines with or without fibrinogen or Fg β15-66. The note with it: 72 hours; ≧100-fold molar excess; VEGF-A165, PlGF-2, FGF-2. The class given is cell-based, human. The method, then: To verify that cytokines bound to Fg β15-66 are still bioactive, the proliferation of HUVEC cells was tested for different cytokines with and without the presence of Fg β15-66. Method: HUVEC cells were stimulated with various cytokines: VEGF-A165, PlGF-2, and FGF-2 with or without fibrinogen or Fg β15-66 in excess (≧100-fold molar excess).

Test [3] deals with T1, FGF-4 (Homo sapiens, UniProt P08620).
T1 sequence (P08620 31-206): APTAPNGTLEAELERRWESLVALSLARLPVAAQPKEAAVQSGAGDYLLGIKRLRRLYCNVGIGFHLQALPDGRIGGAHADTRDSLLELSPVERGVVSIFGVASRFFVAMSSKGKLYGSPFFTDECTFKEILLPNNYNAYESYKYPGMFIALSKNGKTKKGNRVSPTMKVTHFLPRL
Briefly: ELISA binding to coated FGF-4. The note with it: 50 nM cytokine coated. The protocol:
(§1) ELISA plates were coated with cytokines or BSA and further incubated with TNC III1-5 to analyze binding of TNC III1-5 to a wide variety of cytokines. […] Results are depicted in FIG. 3. Method: 50 nM of cytokine was coated for (1 hr, 37° C.). After blocking with 2% BSA (1 hr, RT). 100 nM TNC III1-5 was applied in PBST (0.05% tween, 0.1% bovine serum albumin (BSA)) (1 hr, RT). TNC III1-5 was detected with horseradish peroxidase (HRP)-anti-HIS in PBST (1 hr, RT) and developed with 3,3′,5,5′-tetramethylbenzidine (TMB), a soluble colorimetric HRP […]. Addition of sulfuric acid stop solution changes the color to yellow, enabling accurate measurement of the intensity at 450 nm using a spectrophotometer or plate reader. […] Heparin (4 μM) was added to TNC III1-5 to test the effect of blocking the heparin binding site of TNC III1-5, which has been defined as domain TNC III5 (Weber, Zimmermann, et al., 1995).

Test [4] deals with T2, FGF-17 (Homo sapiens, UniProt O60258).
T2 sequence (O60258 23-216): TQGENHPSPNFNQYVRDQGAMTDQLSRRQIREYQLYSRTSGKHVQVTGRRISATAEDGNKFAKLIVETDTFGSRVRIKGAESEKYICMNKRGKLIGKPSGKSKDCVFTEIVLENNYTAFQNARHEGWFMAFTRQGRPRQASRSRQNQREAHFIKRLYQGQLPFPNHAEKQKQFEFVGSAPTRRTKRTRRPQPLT
Briefly: ELISA binding to coated FGF-17. The note with it: 50 nM cytokine coated. The method, then:
as §1
A general note: ELISA stands for enzyme-linked immunosorbent assay.

The target of test [5] is T3, factor XIIIa (Homo sapiens, UniProt P00488).
T3 sequence (P00488 39-732 limits assumed): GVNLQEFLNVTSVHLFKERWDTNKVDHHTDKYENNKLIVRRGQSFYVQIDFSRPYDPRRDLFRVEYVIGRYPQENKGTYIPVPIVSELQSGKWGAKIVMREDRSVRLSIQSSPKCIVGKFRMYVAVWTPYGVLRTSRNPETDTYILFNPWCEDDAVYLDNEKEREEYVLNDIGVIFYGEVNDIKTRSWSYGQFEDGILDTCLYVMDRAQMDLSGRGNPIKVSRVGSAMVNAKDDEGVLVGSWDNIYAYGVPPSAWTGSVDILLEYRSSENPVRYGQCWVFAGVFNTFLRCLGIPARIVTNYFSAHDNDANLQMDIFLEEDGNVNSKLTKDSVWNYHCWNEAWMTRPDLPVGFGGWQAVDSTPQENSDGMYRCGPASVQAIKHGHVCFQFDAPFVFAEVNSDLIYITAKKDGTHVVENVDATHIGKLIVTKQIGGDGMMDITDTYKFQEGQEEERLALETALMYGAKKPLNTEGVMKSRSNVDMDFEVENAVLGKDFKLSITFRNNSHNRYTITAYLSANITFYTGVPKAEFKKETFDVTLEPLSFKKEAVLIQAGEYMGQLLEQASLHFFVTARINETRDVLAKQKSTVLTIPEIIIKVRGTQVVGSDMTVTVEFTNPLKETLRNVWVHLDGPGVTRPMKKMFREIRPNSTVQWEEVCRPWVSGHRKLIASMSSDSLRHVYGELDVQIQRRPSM
As to the kind of experiment: Transglutaminase substrate activity (TAMRA, fibrinogen, PEG-lysine with factor XIIIa). The class given is biochemical. The note with it: with and without factor XIIIa. The method, then:
The activity of the transglutaminase substrate (TG: NQEQVSPL) (SEQ ID NO:10) of the engineered protein TG-TNC III1-5 was confirmed. FIG. 12 depicts results. Methods: A) The TG activity of TG-TNC III1-5 was tested by reaction with a fluorescent TAMRA molecule, containing lysines, with and without the presence of factor XIIIa, the TAMRA molecule, or TG-TNC III1-5. […] B) The TG activity of TG-TNC III1-5 was tested by reaction with fibrinogen, with and without the presence of factor XIIIa, fibrinogen, or TG-TNC III1-5. Fibrinogen or no protein was coated on an ELISA plate (1 hr, 37° C.), blocked with 2% BSA (1 hr, RT), reacted with or without TG-TNC III1-5 or factor XIIIa C) The TG activity of TG-TNC III1-5 was tested by reaction with PEG-lysines. A robotic spotter was used to bind TG-TNC III1-5 inside 450 μm spots (Gobaa, Hoehnel, et al., 2011), and an immuno-fluorescent stain was used to visualize the location and distribution of TG-TNC III1-5 onto the PEG. D) TG-TNC III1-5 and TG-FN III9*-10,TNC III1-5 (5 μM) were incorporated into a 2% TG-PEG gel. After 2 washed with PBS, 98% and 96% respectively of the fragments was bound into gels, which were sequentially stained with HRP-conjugated anti-HIS, and developed with TMB to read an absorbance at 450 nm.

The target in test [6] is T4, FGF-18 (Homo sapiens, UniProt O76093).
T4 sequence (O76093 28-207): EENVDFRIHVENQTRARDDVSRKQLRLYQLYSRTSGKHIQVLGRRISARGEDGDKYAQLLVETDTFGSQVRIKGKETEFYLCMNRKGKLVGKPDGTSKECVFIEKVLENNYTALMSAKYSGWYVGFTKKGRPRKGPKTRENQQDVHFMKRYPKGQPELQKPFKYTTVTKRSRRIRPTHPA
Briefly: ELISA binding to coated FGF-18. The note with it: 50 nM cytokine coated. The method, then: as §1

The target of test [7] is PDGF-DD (Homo sapiens, UniProt Q9GZP0). Briefly: ELISA binding to coated PDGF-DD. The note with it: 50 nM cytokine coated. The method, then:
as §1

PDGF-DD, sequence (Q9GZP0 250-370 limits assumed): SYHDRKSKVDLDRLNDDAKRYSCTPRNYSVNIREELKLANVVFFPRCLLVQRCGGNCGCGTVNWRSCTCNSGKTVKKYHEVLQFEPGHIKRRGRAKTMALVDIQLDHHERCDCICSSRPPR

B1: Fg β15-66: heparin-binding domain of human fibrinogen β chain aa15-66 (SEQ ID NO:8); construct with TG substrate and His tag, SEQ ID NO:2 (protein)
chain: GSNQEQVSPLGHRPLDKKREEAPSLRPAPPPISGGGYRARPAKAAATQKKVERKAPDAGGCGHHHHHH
modifications: GS linker, transglutaminase substrate, the Fg beta15-66, with a Histidine tag
For the molecule B1, the skin-wound healing result in test [1] is listed as “enhanced skin-wound healing”. Moreover, in test [2], the “synergistic effect on HUVEC proliferation, cytokines plus protein vs cytokines alone” value is given as “no synergistic effect”.

B2: TNC III1-5: recombinant tenascin C fibronectin type III repeats 1-5 (E622 to A1074) with transglutaminase substrate NQEQVSPL and 6×His tag, SEQ ID NO:1 (protein)
chain: METDTLLLWVLLLWVPGSTGDAAQPAIEGRNQEQVSPLGGSEVSPPKDLVVTEVTEETVNLAWDNEMRVTEYLVVYTPTHEGGLEMQFRVPGDQTSTIIQELEPGVEYFIRVFAILENKKSIPVSARVATYLPAPEGLKFKSIKETSVEVEWDPLDIAFETWEIIFRNMNKEDEGEITKSLRRPETSYRQTGLAPGQEYEISLHIVKNNTRGPGLKRVTTTRLDAPSQIEVKDVTDTTALITWFKPLAEIDGIELTYGIKDVPGDRTTIDLTEDENQYSIGNLKPDTEYEVSLISRRGDMSSNPAKETFTTGLDAPRNLRRVSQTDNSITLEWRNGKAAIDSYRIKYAPISGGDHAEVDVPKSQQATTKTTLTGLRPGTEYGIGVSAVKEDKESNPATINAATELDTPKDLQVSETAETSLTLLWKTPLAKFDRYRLNYSLPTGQWVGVQLPRNTTSYVLRGLEPGQEYNVLLTAEKGRHKSKPARVKASTEQAGGGSHHHHHH
modifications: Tenascin III signal sequence with polyhistidine tag
In the case of B2, in test [3], the “binding to FGF-4 (ELISA, signal above BSA background)” value is “positive binding”. Moreover, the “binding to FGF-17 (ELISA, signal above BSA background)” value in test [4] is recorded as “positive binding”. Besides, in test [5], the “activity of the transglutaminase substrate (TG: NQEQVSPL)” value is listed as “confirmed”. Further, the “binding to FGF-18 (ELISA, signal above BSA background)” value in test [6] is given as “positive binding”. For the same molecule, the “binding to PDGF-DD (ELISA, signal above BSA background)” value in test [7] was “positive binding”.
